Test: Plasma pharmacokinetics of HHC^MET in Wistar rats
Type: in vivo
Settings: n=3
Description: This study was performed in order to investigate the plasma pharmacokinetics of HHC^MET in Wistar rats following subcutaneous and intramuscular administration of transient HHC^MET-linker hydrogel prodrug 32 or following subcutaneous or intravenous administration of free HHC^MET. Animals (n=3 per group) received either a single SC injection in the neck region or a single IM injection in the thigh musculature of a formulation of 32 (10 mg/kg HHC^MET equivalents) or a single SC injection in the neck region or IV injection in the tail vein of an HHC^MET formulation (10 mg/kg HHCMet). At selected time points, 200 μL blood were collected in L^1-Heparin tubes and processed to plasma by centrifugation at 3,000 g for 10 minutes at 4° C.
HHC^MET concentrations in rat plasma were determined with an in-house developed sandwich ELISA setup. For capturing HHC^MET, a human CTLA-4 (AA Ala37-Ser160)—Fc Tag fusion protein (Supplier AcroBiosystem, Newark, Del.; USA, catalog no. CT4-H5255) was coated to the ELISA plate wells and read-out was performed via a rabbit anti-camelid VHH antibody conjugated with horseradish peroxidase (supplier Genscript, Piscataway, N.J., USA, catalog no. A01861-200).
Calibration standards of HHC^MET in blank plasma were prepared as follows: thawed L^1-Heparin Wistar rat plasma was homogenized. The free HHC^MET formulation was spiked into blank plasma at concentrations between 96.0 ng/mL and 3.00 ng/mL with additional higher and lower anchor points. These solutions were used for the generation of a calibration curve. Calibration curves were analyzed via a 4-parameter logarithmic fit and 1/Y weighted. Calibration curves were confirmed via separately prepared quality control standards at 10, 40 and 80 ng/mL.

B1: HHC^MET: custom made protein of SEQ ID NO:2, expressed from E. coli; captured by human CTLA-4 and detected with anti-camelid VHH antibody in ELISA (protein)
chain: EVQLVESGGGLVQAGGSLRLSCAASGGTFSFYGMGWFRQAPGKEQEFVADIRTSAGRTYYADSVKGRFTISRDNAKNTVYLQMNSLKPEDTAVYYCAAEMSGISGWDYWGQGTQVTVSSGGGGSGGGSEVQLVESGGGLVQAGGSLRLSCAASGGTFSFYGMGWFRQAPGKEQEFVADIRTSAGRTYYADSVKGRFTISRDNAKNTVYLQMNSLKPEDTAVYYCAAEMSGISGWDYWGQGTQVTVSS
modifications: nanobody
notes: captured by human CTLA-4 and detected with anti-camelid VHH antibody in ELISA
Which “mean HHC^MET concentration” value (0.25 h, 10 mg/kg HHC^MET (equivalents), subcutaneous) does the source give for B1 here?
The value was 2540 ng/mL.

And the “mean HHC^MET concentration” value (0.25 h, 10 mg/kg intravenous)?
Its value is 17400 ng/mL.

And the “mean HHC^MET concentration” value (1 h, 10 mg/kg HHC^MET (equivalents), subcutaneous)?
Its value is 5090 ng/mL.

What about the “mean HHC^MET concentration” value (1 h, 10 mg/kg intravenous) of the same molecule?
Its value is 3530 ng/mL.

What about the “mean HHC^MET concentration” value (4 h, 10 mg/kg HHC^MET (equivalents), subcutaneous) of the same molecule?
The value was 2280 ng/mL.

What about the “mean HHC^MET concentration” value (4 h, 10 mg/kg intravenous) of the same molecule?
The value was 1720 ng/mL.

And the “mean HHC^MET concentration” value (24 h, 10 mg/kg HHC^MET (equivalents), subcutaneous, LLOQ 3.00 ng/mL)?
The value was 2.60 ng/mL.

What about the “mean HHC^MET concentration” value (24 h, 10 mg/kg intravenous) of the same molecule?
The value was 8.27 ng/mL.

What about the “mean HHC^MET concentration” value (32 h, 10 mg/kg HHC^MET (equivalents), subcutaneous, LLOQ 3.00 ng/mL) of the same molecule?
The value was “<LLOQ”.

What about the “mean HHC^MET concentration” value (32 h, 10 mg/kg intravenous, LLOQ 3.00 ng/mL) of the same molecule?
The value was “<LLOQ”.

What about the “mean HHC^MET concentration” value (48 h, 10 mg/kg HHC^MET (equivalents), subcutaneous, LLOQ 3.00 ng/mL) of the same molecule?
The value was “<LLOQ”.

And the “mean HHC^MET concentration” value (48 h, 10 mg/kg intravenous, LLOQ 3.00 ng/mL)?
Its value is “<LLOQ”.

And the “mean HHC^MET concentration” value (72 h, 10 mg/kg HHC^MET (equivalents), subcutaneous, LLOQ 3.00 ng/mL)?
The value was 2.07 ng/mL.

What about the “mean HHC^MET concentration” value (72 h, 10 mg/kg intravenous, LLOQ 3.00 ng/mL) of the same molecule?
Its value is 1.15 ng/mL.

And the “mean HHC^MET concentration” value (96 h, 10 mg/kg HHC^MET (equivalents), subcutaneous, LLOQ 3.00 ng/mL)?
The value was “<LLOQ”.

And the “mean HHC^MET concentration” value (96 h, 10 mg/kg intravenous, LLOQ 3.00 ng/mL)?
Its value is “<LLOQ”.

What about the “mean HHC^MET concentration” value (168 h, 10 mg/kg HHC^MET (equivalents), subcutaneous, LLOQ 3.00 ng/mL) of the same molecule?
Its value is “<LLOQ”.

What about the “mean HHC^MET concentration” value (168 h, 10 mg/kg intravenous, LLOQ 3.00 ng/mL) of the same molecule?
The value was “<LLOQ”.

— patent US20220305136A1, “ANTI-CTLA4 CONJUGATES” (Ascendis Pharma Oncology Division A/S, priority 2019, published 2022)
